± gives the uncertainty stated by the source.
Assay: self-splicing fitness, log relative to wild type (ln ratio); higher = more splicing; Tetrahymena group I intron in knt gene, E. coli kanamycin selection, DiMSum; sequences stand for … in CUCUCU…GGAGGGAAAAGUUAUCAGGCAUGCACCUGGUAGCUAGUCUUUAAACCAAUAGAUUGCAUCGGUUUAAAAGGCAAGACCGUCAAAUUGCGGGAAAGGGGUCAACAGCCGUUCAGUACCAAGUCUCAGGGGAAACUUUGAGAUGGCCUUGCAAAGGGUAUGGUAAUAAGCUGACGGACAUGGUCCUAACCACGCAGCCAAGUCCUAAGUCAACAGAUCUUCUGUUGAUAUGGAUGCAGUUCACAGACUAAAUGUCGGUCGGGGAAGAUGUAUUCUUCUCAUAAGAUAUAGUCGGACCUCUCCUUAAUGGGAGCUAGCGGAUGAAGUGAUGCAACACUGGAGCCGCUGGGAACUAAUUUGUAUGCGAAAGUAUAUUGAUUAGUUUUGGAGUACUCGUGGUCG
Method in brief: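 DiMSum derived fitness as the error-weighted combination of fold changes across replicates, kanamycin versus no kanamycin, normalised to wild type. E. coli BL21(DE3) held the library, which randomised all eight P1ex-region intron nucleotides within the knt kanamycin-resistance gene on pET-22b(+). Six replicate transformations grew overnight at 37°C or 30°C on LB agar with or without 25 μg/mL kanamycin, also containing 100 μg/mL carbenicillin, 50 μM IPTG and 0.2% rhamnose, and pooled colonies were amplicon-sequenced on an Illumina HiSeq 2500.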

| Sequence | self-splicing fitness (ln) (30 °C) | self-splicing fitness (ln) (37 °C) |
| --- | --- | --- |
| UCGUAGCAAUAUUACGGAUA | -1.59 ± 0.34 | -1.02 ± 0.28 |
| UCGUAGCAAUAUUACGGCCA | -0.72 ± 0.13 | -0.85 ± 0.16 |
| UCGUAGCAAUAUUACGGGAG | -2.85 ± 0.2 | -3.28 ± 0.25 |
| UCGUAGCAAUAUUACGGUGA | -1.57 ± 0.096 | -1.11 ± 0.1 |
| UCGUAGCAAUAUUACGUAAC | -1.64 ± 0.34 | – |
| UCGUAGCAAUAUUACGUAAG | -2.62 ± 0.23 | -2.58 ± 0.32 |
| UCGUAGCAAUAUUACGUCAU | -3.23 ± 0.35 | -2.17 ± 0.33 |
| UCGUAGCAAUAUUACGUCGU | -4.26 ± 0.32 | -1.25 ± 0.18 |
| UCGUAGCAAUAUUACGUGUG | -2.3 ± 0.1 | -1.41 ± 0.089 |
| UCGUAGCAAUAUUACGUUUU | -2.58 ± 0.17 | -3.25 ± 0.23 |
| UCUAAGCAAUAUUACGAAAG | -2.88 ± 0.17 | -2.03 ± 0.18 |
| UCUAAGCAAUAUUACGAAUC | – | -2.3 ± 0.45 |
| UCUAAGCAAUAUUACGACGG | 0.00998 ± 0.076 | 0.286 ± 0.11 |
| UCUAAGCAAUAUUACGAGAG | -3.21 ± 0.28 | -2.37 ± 0.21 |
| UCUAAGCAAUAUUACGAGUG | -0.69 ± 0.092 | -0.683 ± 0.14 |
| UCUAAGCAAUAUUACGAUAA | -1.46 ± 0.17 | -0.693 ± 0.2 |
| UCUAAGCAAUAUUACGCAGG | -2.92 ± 0.23 | -2.36 ± 0.41 |
| UCUAAGCAAUAUUACGCGAA | -3.03 ± 0.2 | -1.69 ± 0.16 |
| UCUAAGCAAUAUUACGCUUU | -3.36 ± 0.21 | -2.94 ± 0.48 |
| UCUAAGCAAUAUUACGGAAA | -2.93 ± 0.28 | -1.9 ± 0.27 |
| UCUAAGCAAUAUUACGGCAC | -3.19 ± 0.44 | -2.85 ± 0.32 |
| UCUAAGCAAUAUUACGGUCA | -1.31 ± 0.12 | -0.792 ± 0.12 |
| UCUAAGCAAUAUUACGUAAA | -1.36 ± 0.097 | -0.985 ± 0.12 |
| UCUAAGCAAUAUUACGUACA | -1.57 ± 0.13 | -1.13 ± 0.13 |
| UCUAAGCAAUAUUACGUACG | -0.481 ± 0.11 | 0.49 ± 0.13 |

| Sequence | self-splicing fitness (ln) (30 °C) | self-splicing fitness (ln) (37 °C) |
| --- | --- | --- |
| UCUAAGCAAUAUUACGUAUC | -4.13 ± 0.24 | -3.01 ± 0.21 |
| UCUAAGCAAUAUUACGUGCC | -4.37 ± 0.39 | – |
| UCUAAGCAAUAUUACGUGUC | -4.21 ± 0.36 | – |
| UCUAAGCAAUAUUACGUUUG | -3.95 ± 0.3 | -2.4 ± 0.24 |
| UCUCAGCAAUAUUACGAAAG | -1.9 ± 0.26 | -1.36 ± 0.21 |
| UCUCAGCAAUAUUACGACAG | -2.76 ± 0.17 | -2.33 ± 0.17 |
| UCUCAGCAAUAUUACGAGCC | -1.14 ± 0.19 | -1.68 ± 0.41 |
| UCUCAGCAAUAUUACGAGUU | -2.32 ± 0.11 | -1.13 ± 0.099 |
| UCUCAGCAAUAUUACGAUGA | -1.01 ± 0.12 | -0.477 ± 0.11 |
| UCUCAGCAAUAUUACGAUUU | -1.99 ± 0.093 | -1.1 ± 0.12 |
| UCUCAGCAAUAUUACGCCAA | -2.86 ± 0.27 | -2.74 ± 0.29 |
| UCUCAGCAAUAUUACGCGAC | – | -2.37 ± 0.35 |
| UCUCAGCAAUAUUACGCGGC | -4.17 ± 0.42 | -1.86 ± 0.27 |
| UCUCAGCAAUAUUACGCGGU | -2.89 ± 0.26 | -2.3 ± 0.28 |
| UCUCAGCAAUAUUACGCUCU | -3.26 ± 0.26 | -2.68 ± 0.41 |
| UCUCAGCAAUAUUACGCUUC | -2.92 ± 0.21 | -2.33 ± 0.28 |
| UCUCAGCAAUAUUACGGAGU | -2.81 ± 0.22 | -2.49 ± 0.19 |
| UCUCAGCAAUAUUACGGCAU | -2.27 ± 0.11 | -2.4 ± 0.16 |
| UCUCAGCAAUAUUACGGCGA | -1.13 ± 0.1 | -0.623 ± 0.11 |
| UCUCAGCAAUAUUACGGCUA | -0.678 ± 0.29 | -2.19 ± 0.32 |
| UCUCAGCAAUAUUACGUAAU | -3.43 ± 0.18 | -2.28 ± 0.18 |
| UCUCAGCAAUAUUACGUCUA | -2.95 ± 0.28 | -1.38 ± 0.15 |
| UCUCAGCAAUAUUACGUCUG | -4.98 ± 0.45 | -2.82 ± 0.25 |
| UCUCAGCAAUAUUACGUGAU | -4.03 ± 0.21 | -1.85 ± 0.13 |

Reference: the supplement of paper PMC7877785
